In PMC5424357:

Columns and labels:
Test in all cases: purified protein
Details in all cases: optimal conditions (optimum pH 8.0, 30 °C), substrate range stated 0.2–2.4 mM
[1] = test system: CCCCOC(=O)[C@@H](C)Oc1ccc(Oc2ccc(C#N)cc2F)cc1
[2] = test system: COC(=O)[C@@H](C)Oc1ccc(Oc2ncc(C(F)(F)F)cc2Cl)cc1
[3] = test system: C[C@@H](Oc1ccc(Oc2cnc3cc(Cl)ccc3n2)cc1)C(=O)OCC1CCCO1
[4] = test system: CCOC(=O)[C@@H](C)Oc1ccc(Oc2nc3ccc(Cl)cc3o2)cc1
[5] = test system: C#CCOC(=O)[C@@H](C)Oc1ccc(Oc2ncc(Cl)cc2F)cc1

Substance: QpeH (Pseudomonas sp.)
- Km [1]: 158.2 ± 3.5 µM
- kcat [1]: 41.1 ± 4.1 s⁻¹
- kcat/Km [1]: 260000 ± 30000 M⁻¹ s⁻¹
- Km [2]: 113.9 ± 3.8 µM
- kcat [2]: 67.4 ± 2.6 s⁻¹
- kcat/Km [2]: 590000 ± 40000 M⁻¹ s⁻¹
- Km [3]: 29.5 ± 2.7 µM
- kcat [3]: 146 ± 3.3 s⁻¹
- kcat/Km [3]: 4.96e+06 ± 90000 M⁻¹ s⁻¹
- Km [4]: 26.9 ± 4.3 µM
- kcat [4]: 162 ± 3.4 s⁻¹
- kcat/Km [4]: 6.01e+06 ± 50000 M⁻¹ s⁻¹
- Km [5]: 174.0 ± 4.2 µM
- kcat [5]: 37.1 ± 2.9 s⁻¹
- kcat/Km [5]: 210000 ± 20000 M⁻¹ s⁻¹
